# Laboratory results reported in patent US7074589.
# How the values were obtained:
# SRp30b = SRp30b (UniProt Q62093)
# SRp20 = biological target: T1, SRp20 (UniProt P84104)
# T1 sequence: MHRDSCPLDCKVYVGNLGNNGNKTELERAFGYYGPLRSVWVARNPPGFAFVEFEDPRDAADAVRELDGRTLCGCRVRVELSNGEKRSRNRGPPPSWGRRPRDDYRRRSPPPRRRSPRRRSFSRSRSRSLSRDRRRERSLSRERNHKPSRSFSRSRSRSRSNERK
# SRp55 = biological target: T2, SRp55 (UniProt Q3TWW8)
# T2 sequence: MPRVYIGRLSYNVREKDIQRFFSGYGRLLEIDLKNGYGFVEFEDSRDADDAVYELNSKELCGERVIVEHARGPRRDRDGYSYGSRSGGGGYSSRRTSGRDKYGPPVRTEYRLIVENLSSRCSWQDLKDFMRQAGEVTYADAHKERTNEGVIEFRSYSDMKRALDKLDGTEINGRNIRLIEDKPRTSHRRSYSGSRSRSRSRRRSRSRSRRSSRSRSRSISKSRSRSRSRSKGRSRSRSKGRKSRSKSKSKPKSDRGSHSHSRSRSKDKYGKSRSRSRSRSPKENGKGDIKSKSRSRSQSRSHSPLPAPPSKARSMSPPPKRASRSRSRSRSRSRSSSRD
# SRp30a = SRp30a (UniProt Q6PDM2)
# SRp40 = biological target: T3, SRp40 (UniProt O35326)
# T3 sequence: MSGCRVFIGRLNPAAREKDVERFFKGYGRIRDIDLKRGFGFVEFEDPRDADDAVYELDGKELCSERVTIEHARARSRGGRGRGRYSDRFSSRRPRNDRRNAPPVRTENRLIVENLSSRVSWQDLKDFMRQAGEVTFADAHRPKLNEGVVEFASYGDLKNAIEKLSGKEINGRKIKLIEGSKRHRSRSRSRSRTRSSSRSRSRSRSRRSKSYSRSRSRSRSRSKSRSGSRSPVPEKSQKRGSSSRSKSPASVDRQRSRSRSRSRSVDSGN
# Sequence of SRp30a (Q6PDM2 2-248): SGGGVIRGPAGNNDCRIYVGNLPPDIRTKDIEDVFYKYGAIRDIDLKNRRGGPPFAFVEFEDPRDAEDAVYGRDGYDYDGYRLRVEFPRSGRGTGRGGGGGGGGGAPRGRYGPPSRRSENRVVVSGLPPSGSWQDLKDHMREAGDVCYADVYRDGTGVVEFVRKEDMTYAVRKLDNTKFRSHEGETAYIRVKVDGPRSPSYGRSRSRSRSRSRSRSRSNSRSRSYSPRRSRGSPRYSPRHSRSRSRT
# Sequence of SRp30b (Q62093 2-221): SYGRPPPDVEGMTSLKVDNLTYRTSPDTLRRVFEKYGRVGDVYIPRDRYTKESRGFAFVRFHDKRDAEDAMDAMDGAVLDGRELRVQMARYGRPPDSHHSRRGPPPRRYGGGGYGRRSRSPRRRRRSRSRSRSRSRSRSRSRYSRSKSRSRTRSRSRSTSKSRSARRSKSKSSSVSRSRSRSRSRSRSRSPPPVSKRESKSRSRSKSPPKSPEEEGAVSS
Substance,"phosphorylation of SR proteins, in vitro kinase assay with gamma-32P-ATP (SRp30b)","phosphorylation of SR proteins, in vitro kinase assay with gamma-32P-ATP (SRp20)","phosphorylation of SR proteins, in vitro kinase assay with gamma-32P-ATP (SRp55)","phosphorylation of SR proteins, in vitro kinase assay with gamma-32P-ATP (SRp30a)","phosphorylation of SR proteins, in vitro kinase assay with gamma-32P-ATP (SRp40)"
GST-mCLK2 fusion protein,mCLK2 and mCLK3 phosphorylated both with almost equal efficiency,"All mCLK kinases were able to phosphorylate SRp2O, SRp3Oa and to a lesser extent SRp4O and SRp55","All mCLK kinases were able to phosphorylate SRp2O, SRp3Oa and to a lesser extent SRp4O and SRp55","All mCLK kinases were able to phosphorylate SRp2O, SRp3Oa and to a lesser extent SRp4O and SRp55","All mCLK kinases were able to phosphorylate SRp2O, SRp3Oa and to a lesser extent SRp4O and SRp55"
GST-mCLK3 fusion protein,mCLK2 and mCLK3 phosphorylated both with almost equal efficiency,"All mCLK kinases were able to phosphorylate SRp2O, SRp3Oa and to a lesser extent SRp4O and SRp55","All mCLK kinases were able to phosphorylate SRp2O, SRp3Oa and to a lesser extent SRp4O and SRp55","All mCLK kinases were able to phosphorylate SRp2O, SRp3Oa and to a lesser extent SRp4O and SRp55","All mCLK kinases were able to phosphorylate SRp2O, SRp3Oa and to a lesser extent SRp4O and SRp55"
GST-mCLK4 fusion protein,mCLK1 and mCLK4 phosphorylated SRp3Oa (upper band) more strongly than SRp3Ob,"All mCLK kinases were able to phosphorylate SRp2O, SRp3Oa and to a lesser extent SRp4O and SRp55","All mCLK kinases were able to phosphorylate SRp2O, SRp3Oa and to a lesser extent SRp4O and SRp55","All mCLK kinases were able to phosphorylate SRp2O, SRp3Oa and to a lesser extent SRp4O and SRp55","All mCLK kinases were able to phosphorylate SRp2O, SRp3Oa and to a lesser extent SRp4O and SRp55"
